From the nanobody polyreactivity screen of Harvey et al. (2022)

Assay: yeast display, Sf9 membrane polyspecificity reagent, FACS + sequencing; frameworks hold sequencing errors
Method in brief: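 Galactose-induced (36–48 hours) yeast carrying a synthetic nanobody display library were exposed to 10% biotinylated, detergent-solubilized Sf9 membrane reagent at 4 °C for 1 hour. FACS followed streptavidin microbead enrichment, using low and high (top ~1%) gates for expression (anti-HA) and reagent binding (streptavidin). Colony PCR, MiSeq 2 × 250 sequencing and CDR-length filtering followed. Labels for polyreactivity reflect the gate of origin.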

## QVQLVESGGGLVQAGGSLRLSCAASGRTFSNYAMGWYRQAPGKERELVAAIRSGVRTYYADSVKGRFTISRDNAKNTVYLQMNSLKPEDTAVYYCAVATGLLYKSHGYWGQGTQVTVSS
  polyreactivity (PSR sort gate): low polyreactivity

## QVQLVESGGGLVQAGGSLRLSCAASGCTRWYAMGWYRQAPGKERELVAAINGRGVSTYYAVSVKGRFRISRDNAKHTVYLQMNSLKQADTAVYYCAAYAYYDRYRRYDYWGQGTQVTVST
  polyreactivity (PSR sort gate): low polyreactivity

## QFQLVESGGGLVQAGGSLRLSCAASALIFTPNAMGSYIPAPGKESELVAAISSSGRTSYADSVKGRFTISRDNAKNAVYLQMNSLKPEDTAVYYSNATWRWTRRGYVYWGQGTQVTLSS
  polyreactivity (PSR sort gate): low polyreactivity

## QVQLVESGGGLVQAGGSLRLSCAASGSIFPYYAMGWYRQAPGKERELVATITSRGGSTYYADSVKGRFTISRDNAKNTVYLQMNSLKPEDTAVYYCAKEYRYYRRRYDYWGQGTQVTVSS
  polyreactivity (PSR sort gate): high polyreactivity

## QVQLVESGGGLVQAGGSLRLSCAASGSTLVGNAMGWYRQAPRKERELVATISKRSGSTYYADSVKGRFTISRDNAKNTVYLQMNSLKPEDSAVYYCNADDVRRRAYRIGSYWGYDYWGQGTQVTVSS
  polyreactivity (PSR sort gate): low polyreactivity

## QVQLVESGGGLVQAGGSLRLSCAASGITLLYNAMGWSRQAPGKERELVAGITGRGGSTYYADSVKGRFTISRDNAKNTVYLQMNSLKPEDTAVYYCAATTDYRYVGRIVIRDEHWGQGTQVTVSS
  polyreactivity (PSR sort gate): low polyreactivity

## KVQLVESGGGLVQAGGSLRLSCAASGYIVSYYDMGWYRQAPGKERELVAAITAGVAGTYYADSVKGRLTISRDNAKNSVYLQMNSLTPEDTAVFYCAADRYITTVVRMYYSGQGTQVTVSS
  polyreactivity (PSR sort gate): low polyreactivity

## QVQLVESGGGLVQAGGSLRIICAASGSTLGYNAMGWYRQAPGKERELVAAISSDGGSTYYADSVKGRFTISRDNAKNTVYLQMNSLKPEDTAVYYCAAYYYTPGYGSWGQGTQVTVSS
  polyreactivity (PSR sort gate): low polyreactivity

## QVQLVESGGGLVQAGGSLRLSCAASGIIFDINAMGWYRQAPGKERELVAAITTSVDSTYYADSVKGRFTISRDTAKNTVYLQMNSLKPEDTAVYYCAVAFVQFTQYDYWGQGTQVTVSS
  polyreactivity (PSR sort gate): low polyreactivity

## QVQLVESGGGLVQAGGSLRLSCAASGSISGYYAMGWYRQAPGKERELVASIRYTGARTYYADSVKGRFTISRDNAKNTVYLQMNSLKPEDTAVYYCAADFRSVFSKYSYYLYFDFDYWGQGTQVTVSS
  polyreactivity (PSR sort gate): low polyreactivity

## QVQLVESGGGLVQAGGSLRLRCAASGYTFKHYTMGWYREAPGKERELVAAISRRGGRTYYADSVKGRFTISRDNAKNTVYLQMNSLKPEDTAVYYCNRVPRARKGDYWGQGTQVTVSS
  polyreactivity (PSR sort gate): high polyreactivity

## QVQLVESGGGLVQAGGSHRLSCAASGRIFALNAMGWYRQAPGKERELVDAIDTSSGDTYYADSVKGRFTISRDNAKNTVNLQMNCLKPEDTAVYYCAAEGLSPYAYVFSNYDYWGQGTQVTVSS
  polyreactivity (PSR sort gate): low polyreactivity

## QVQLVDSGGGLVQAGGSLRLSCAASGFTFYRYAMGWYRQAPGKERELVAAITGRAGRTYYADSVKGRFTISRDNAKNTVYLQMNSLKPEDTAVYYCSGYRYYGGYGYWGQGTQVTVSS
  polyreactivity (PSR sort gate): high polyreactivity

## QVQLVESGGGLVQAGGSLRLSCAASGFTFGRYAMGWYRQAPGKERELVAAISTSGGRTYYADSVKGRFTISRDNAKNTVYLQMNSLKPEDTAVYYCAAEQRRFTGYDYWGQGTQVTVSS
  polyreactivity (PSR sort gate): high polyreactivity

## QVQHVESGGGLVQAGGSLRLSCAASGSIYISNAMGWYRQAPGKERELVAAITSSGGSTYDADSVKGRFTISRDNAKNTVSLQMNSLKPEDTAVYYCAARPGRNYYYWGQGTQVTVSS
  polyreactivity (PSR sort gate): high polyreactivity

## QVQLVESGGGLVQAGGSLRLSCAASGFIFHYYAMGWYRQAPGKERELVAAISSGGGRTYYADSVKGRFTISRDNAKNTVYLLMNSLKPEDTAVYYCAARYAVNAWGGRRDYWGQGTEVTVSS
  polyreactivity (PSR sort gate): high polyreactivity

## QVQLVESGGGLVQAGGSLRLSCAASGITFDHSAMGWYRQAPGKEREFVAAIDDIGGDTYYADSVKGRFTISRDNAKNTVYLQMNSLKPEDTAVDYCAADYGYYSRFYYWGQGTQVTVSS
  polyreactivity (PSR sort gate): low polyreactivity

## QVQLVESAGGLVQAGGSLRLICAASGSILQPYAMGWYRQAPGKERELVAYISYSGASTYYADSVKGRFTISRDNPKNTVYLQLNSLKPEDPAVYYCNARYWYHYLTYDYSGQGTQVTVSS
  polyreactivity (PSR sort gate): high polyreactivity

## QVQLVESGGGLVQAGGSLRLSCAASGSTFQSYAMGWYRQAPWKERELVAAITTTGTRTYYADSVKGRFTISRDNAKNTVYLQMNSLKPEDTAVYYCNAQRLQAHRTSRRYGYWGQGTQVTVSS
  polyreactivity (PSR sort gate): high polyreactivity

## QVQLVESGGGLVQAGGSLRLSCAASGSIILGYAMGWYRQAPGKERELVAAIRRSSAGTYYADSVKGRFTISRDNAKNTVYLQMISLKPEDTAVYYCAWYPATYRWAYYYWGQGTQVTVSS
  polyreactivity (PSR sort gate): high polyreactivity

## QVQLVESGGGLVQAGGSLRLSCDASGSIFGSYAMGWYRQAPGKEWELVAAISRRGGSTYYADSVKGRFTISRDNAKNTVYLQMNSLKAEDTAVYYCARRDYGVLNKGLGQEGDYWGQGTQVTVSS
  polyreactivity (PSR sort gate): low polyreactivity

## QVQLVESGGGLVQAGGSLRLSCAASGRIFDINAMGWYRQAPGKERELVAAINYNGSSTYYADSVKGRFTISRDNAKNTVYLEMNSLKPEDTAVYYCATEQVDVYTYDYWGQGTQVTVSS
  polyreactivity (PSR sort gate): high polyreactivity

## QVQLVESGGGLVQAGGSLRLSCAASGITFEDNAMGWYRQAPGKERELVATISDGGRTYYADSVKGRFTISRDNAKNTVYIQMNSLKPEDTAVYYCAAGYPYYHVYGYGYWGQGTQVTVSS
  polyreactivity (PSR sort gate): low polyreactivity

## QVQLVESGGGLVQAGGSLRLSCAASGFTFNRNAMGWYIQAPGKERELVAAISWSGGSTYYADSVKGRFTISRDNAKNTVYLQMNSLKPQDTEVYYCAKGYRRVYGPFYFWGQGTQVTVSS
  polyreactivity (PSR sort gate): low polyreactivity

## QVQLVESGGGLVQAGGSLRLSCAASGSIFLYNAMGWYRPAPGKERELVAAISKSGGSTYYADSVKGRFTISRDNAKNTVYLQMNSLKPEDTAVYYCAAGYGRRIRYGSEYDYWGQGTQVTVSS
  polyreactivity (PSR sort gate): low polyreactivity

## QVQLVESGGGLVQAGGSLRLTCAASGIIFQRNTMGWYRQAPGKERELVAAITSRGGRTYYADSVKGRFTISRDNAKNTVYLQMNSLKPEDTAVYYCAALLYFYSRPYGYWGQGTQVTVSS
  polyreactivity (PSR sort gate): high polyreactivity

## QVQLVESGGGLVQAGGSLRLSCAASGSILQYYAMGWYRQTPGKERELVAAITSGGSTYYADSVKGRFTISRDNAKNTVYLQMNSLKPEDTAVYYCAKVYRRAQYDYCGQGTQVTVSS
  polyreactivity (PSR sort gate): low polyreactivity

## QVQLVESGGGLVQAGGSLRLSCAASGSTFYQYVMGWYRQAPGKERELVAAISGSGGSTYYADSVKGRFTISRDNAKTTVYLQMNSLKPEDTAVYYCAAVGRSKRDGYWGQGTQVTVSS
  polyreactivity (PSR sort gate): high polyreactivity

## QVQLVESGGGLVQAGGSLRLSCAASGITFVYYDMGWYRQAPGKERELVAAISSGGSTYYADSVKGRFTISRDNAKNNVYLQMNRLKPEDTAVYYCAAKISSNYHIGGDDYWGQGTQVTVSS
  polyreactivity (PSR sort gate): high polyreactivity

## QVQLVESGGGLVQAGGSLRLSCAASGSTFARNAMGWYRQAPGKERELVAAITNAGDTNYADSVKGRFTISRDNAKNTVYLQMNSLKPEDTAVYYCAAEPILIDEYWGQGTQVTVSS
  polyreactivity (PSR sort gate): low polyreactivity

## QVQLVESGGGLVQAGGSLRLSCAASGNNFSAYAMGWYRQAPGKERELVATITSGGRTYYADSVKGRFTISRDNAKNTVYLQMNSLKPEDTAVYYCAADGPYYSPYYYWGQGTQVTVSS
  polyreactivity (PSR sort gate): low polyreactivity

## QVQLVESGGGLVQAGGSLRLSCAASGSIFYGYAMGWYRQATGKERELVAAITSGGSTYYADSVKGRFTISRDNAKNTVYLQMNSLKPEDTAVYYCAADYPSRYWRIDYEYWGQGTQVTVSS
  polyreactivity (PSR sort gate): high polyreactivity

## QVQLVESGGGLVQAGGSLRLSCAASGIIFSYNTMGWYRPAPGKERELVAAISRTGGRTYYADSVKGRFTNSRDNAKITVYLQMNSLKPEDTAVYYCAAEQQYASMGYDYWGLGTQVTVSS
  polyreactivity (PSR sort gate): high polyreactivity

## QVQLVESGGGLVQAGGSLRLSCAASGAIFYYYCMGWYRQAPGKEREWVAGISSRGGRTYYADSVKGRFTISRDNAKNTVYLQMNSLKPVDTAVYYCAADRYYYAYRYFPSGYWGQGTQVTVSS
  polyreactivity (PSR sort gate): low polyreactivity

## QVQLVESGGGLVQAGGSLRLSCAASGGIFGGYAMGWYRQAPGKEGELVPVITSGGSTYYADSVKARFTISRDNAKNTVYLQMNSLKPEDTAVYYCAADGHSYSYSTYDYWGQGTQVTVSS
  polyreactivity (PSR sort gate): low polyreactivity

## QVQLVESGGGLVQAGGSLRLSCAASGSTLPGFTMGWYRHAPGKERELVAAISWSGGSTSYADSVKGRFTISRDNAKNTVYLQMNSLKPEDTAVYYCDVDRFWRPVRSGSTYDYWGQGTQVTVSS
  polyreactivity (PSR sort gate): low polyreactivity

## QVQLVESGGGLVQAGGSLRLSCAASGSIFDWYDMGWYRQAPRKEGELVAAISSGDSSYYADSVKGRFTISRDNAKNTVYFQIISLKPEDTAVYFCAAVTKLSGIRYNYWGQGTQLTVSS
  polyreactivity (PSR sort gate): low polyreactivity

## QVQLVESGGGLVQAGGSLRLTCAASGIIFASNAMGWYRQAPGKEMELVATINWTDSSTYYADSVKGRFTISRDNAKNTVYLQMNSLKPEDTAVYYCNGVPHWFYRYGRYDYWGQGSQVTVSS
  polyreactivity (PSR sort gate): low polyreactivity

## QVQLVESGGGLVQAGGSLRLSCAASGITFDYYAMGWYRQAPRKERELVAAITGGGSTNYADSVKGRFTISRDNAKNTVYLQMNSLIPEDTAVYFCNALTRYRYQYGYLGGTGYNYWGHGTQVTVSS
  polyreactivity (PSR sort gate): low polyreactivity

## QVQLVESGGGLVQAGGSLRLSCAASGSTFRGYAMGWYRQAPGKERELVASISWSGGSTYYADSVKGRFTISRDNAKNTVYLQMNSLKPEDTAVYYCAARKRWRNIRMDYWGQGTQVTVSS
  polyreactivity (PSR sort gate): high polyreactivity

## QVHLVESGGGLVQAGGSLRLSCAASGRTFDLNVMGWYRQAPGKERELVAAISFSGGSTYYADSVKGRFTISRDNAKNTVYLQMNSLKPEDTAVYYCSADEYSADSVPSWYDYWGQGTQVTVSS
  polyreactivity (PSR sort gate): high polyreactivity

## QVQLVESGGGLVQAGVSLRISCAPSGRTFIIYAMGRYRQAPGKERELVADISSGGSTYYADSVKGRFKISRDNAKNTVYLHMNSLKPEDTAVYYCAAQSWYYPIGYDYWGLGTQVTVSS
  polyreactivity (PSR sort gate): low polyreactivity

## QVQLVESGGGLVQAGGSLRLSCAASGSTIRHYAMGWYRQAPGKERELVAAISSGARTYYADSVKGRFTISRDNAKNTVYLQMNSLKPEDTAVYYCAARYNGYAYPYYYWGQGTQVTVSS
  polyreactivity (PSR sort gate): high polyreactivity
